Experimental findings from article PMC4812828 (Nature structural & molecular biology, 2016) are described below.

Common to all, as to test: cryo-EM structure
For assay [1], the target named is T1, Cdc45 (S. cerevisiae, UniProt Q08032 1-650).
T1 sequence: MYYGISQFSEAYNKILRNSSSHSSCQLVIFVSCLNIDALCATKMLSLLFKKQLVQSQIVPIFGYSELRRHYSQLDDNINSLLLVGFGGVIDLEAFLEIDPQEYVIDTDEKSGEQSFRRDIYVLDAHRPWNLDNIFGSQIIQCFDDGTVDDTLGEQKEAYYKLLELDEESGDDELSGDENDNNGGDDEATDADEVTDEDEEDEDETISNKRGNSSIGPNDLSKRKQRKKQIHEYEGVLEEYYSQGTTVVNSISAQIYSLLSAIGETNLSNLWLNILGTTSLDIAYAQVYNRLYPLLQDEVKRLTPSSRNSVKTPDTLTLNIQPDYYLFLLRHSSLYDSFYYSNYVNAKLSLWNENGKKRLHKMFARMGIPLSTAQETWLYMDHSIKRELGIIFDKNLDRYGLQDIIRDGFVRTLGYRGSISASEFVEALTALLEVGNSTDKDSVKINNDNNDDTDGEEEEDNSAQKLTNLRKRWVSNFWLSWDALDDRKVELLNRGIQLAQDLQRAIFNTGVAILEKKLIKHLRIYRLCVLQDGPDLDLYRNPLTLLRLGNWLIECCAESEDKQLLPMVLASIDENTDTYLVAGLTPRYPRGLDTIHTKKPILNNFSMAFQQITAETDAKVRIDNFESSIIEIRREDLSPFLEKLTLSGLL

For assay [2], the target named is Mcm6 (S. cerevisiae, UniProt P53091 1-1017).
Assay [3] has as its target T2, GINS (S. cerevisiae, UniProt Q03406;Q12488;P40359;Q12146).
T2 sequence 1: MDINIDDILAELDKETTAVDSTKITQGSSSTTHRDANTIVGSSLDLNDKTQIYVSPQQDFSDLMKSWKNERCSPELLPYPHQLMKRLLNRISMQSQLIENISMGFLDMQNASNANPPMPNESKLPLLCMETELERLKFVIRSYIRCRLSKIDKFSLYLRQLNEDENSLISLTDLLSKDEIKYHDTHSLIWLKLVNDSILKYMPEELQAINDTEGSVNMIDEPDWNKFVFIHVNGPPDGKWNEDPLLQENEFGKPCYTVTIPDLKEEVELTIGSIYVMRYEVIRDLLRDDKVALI
T2 sequence 2: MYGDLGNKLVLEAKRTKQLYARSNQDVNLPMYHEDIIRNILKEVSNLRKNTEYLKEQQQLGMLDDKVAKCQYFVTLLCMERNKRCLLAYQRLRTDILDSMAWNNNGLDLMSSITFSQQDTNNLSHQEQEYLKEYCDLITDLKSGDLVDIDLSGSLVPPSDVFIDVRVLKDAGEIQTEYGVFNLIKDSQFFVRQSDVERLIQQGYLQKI
T2 sequence 3: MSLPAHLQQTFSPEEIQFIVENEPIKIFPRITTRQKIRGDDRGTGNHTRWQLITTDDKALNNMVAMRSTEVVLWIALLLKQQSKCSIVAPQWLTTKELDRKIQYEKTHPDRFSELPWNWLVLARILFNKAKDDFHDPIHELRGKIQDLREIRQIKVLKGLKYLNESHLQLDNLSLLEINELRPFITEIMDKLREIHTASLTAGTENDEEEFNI
T2 sequence 4: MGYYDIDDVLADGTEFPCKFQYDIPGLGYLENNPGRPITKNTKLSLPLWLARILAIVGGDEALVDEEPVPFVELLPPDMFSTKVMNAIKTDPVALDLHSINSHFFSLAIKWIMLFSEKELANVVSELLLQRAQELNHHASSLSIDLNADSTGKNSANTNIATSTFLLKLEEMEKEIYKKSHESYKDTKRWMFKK

The target in assay [4] is Mcm3 (S. cerevisiae, UniProt P24279 1-971).
Assay [5] concerns the target T3, Mcm4 (S. cerevisiae, UniProt P30665 1-933).
T3 sequence: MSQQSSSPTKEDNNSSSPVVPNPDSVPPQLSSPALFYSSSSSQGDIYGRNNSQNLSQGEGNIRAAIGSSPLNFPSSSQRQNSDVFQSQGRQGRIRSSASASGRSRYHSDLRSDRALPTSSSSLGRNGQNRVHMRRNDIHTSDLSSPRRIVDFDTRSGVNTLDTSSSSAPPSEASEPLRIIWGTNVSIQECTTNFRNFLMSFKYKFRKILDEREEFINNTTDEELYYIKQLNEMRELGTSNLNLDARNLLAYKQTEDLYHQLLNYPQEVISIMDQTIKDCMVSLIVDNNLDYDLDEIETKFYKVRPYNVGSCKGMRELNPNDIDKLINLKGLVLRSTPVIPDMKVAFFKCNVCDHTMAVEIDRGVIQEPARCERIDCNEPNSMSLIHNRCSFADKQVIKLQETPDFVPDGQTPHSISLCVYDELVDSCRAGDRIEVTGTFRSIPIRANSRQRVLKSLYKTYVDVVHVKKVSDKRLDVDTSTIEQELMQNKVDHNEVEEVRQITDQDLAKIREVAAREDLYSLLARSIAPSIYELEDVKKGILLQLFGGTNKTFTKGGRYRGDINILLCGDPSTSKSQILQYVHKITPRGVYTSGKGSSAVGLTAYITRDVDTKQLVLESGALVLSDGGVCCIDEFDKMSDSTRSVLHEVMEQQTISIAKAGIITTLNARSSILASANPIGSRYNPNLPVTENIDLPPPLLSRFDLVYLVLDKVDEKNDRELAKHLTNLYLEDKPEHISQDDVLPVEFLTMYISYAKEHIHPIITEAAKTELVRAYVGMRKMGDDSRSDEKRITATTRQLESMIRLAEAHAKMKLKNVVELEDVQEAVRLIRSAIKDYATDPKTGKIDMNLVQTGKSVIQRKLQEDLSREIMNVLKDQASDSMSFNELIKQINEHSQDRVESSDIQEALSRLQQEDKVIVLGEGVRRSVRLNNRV

Mcm3, sequence (P24279 whole entry): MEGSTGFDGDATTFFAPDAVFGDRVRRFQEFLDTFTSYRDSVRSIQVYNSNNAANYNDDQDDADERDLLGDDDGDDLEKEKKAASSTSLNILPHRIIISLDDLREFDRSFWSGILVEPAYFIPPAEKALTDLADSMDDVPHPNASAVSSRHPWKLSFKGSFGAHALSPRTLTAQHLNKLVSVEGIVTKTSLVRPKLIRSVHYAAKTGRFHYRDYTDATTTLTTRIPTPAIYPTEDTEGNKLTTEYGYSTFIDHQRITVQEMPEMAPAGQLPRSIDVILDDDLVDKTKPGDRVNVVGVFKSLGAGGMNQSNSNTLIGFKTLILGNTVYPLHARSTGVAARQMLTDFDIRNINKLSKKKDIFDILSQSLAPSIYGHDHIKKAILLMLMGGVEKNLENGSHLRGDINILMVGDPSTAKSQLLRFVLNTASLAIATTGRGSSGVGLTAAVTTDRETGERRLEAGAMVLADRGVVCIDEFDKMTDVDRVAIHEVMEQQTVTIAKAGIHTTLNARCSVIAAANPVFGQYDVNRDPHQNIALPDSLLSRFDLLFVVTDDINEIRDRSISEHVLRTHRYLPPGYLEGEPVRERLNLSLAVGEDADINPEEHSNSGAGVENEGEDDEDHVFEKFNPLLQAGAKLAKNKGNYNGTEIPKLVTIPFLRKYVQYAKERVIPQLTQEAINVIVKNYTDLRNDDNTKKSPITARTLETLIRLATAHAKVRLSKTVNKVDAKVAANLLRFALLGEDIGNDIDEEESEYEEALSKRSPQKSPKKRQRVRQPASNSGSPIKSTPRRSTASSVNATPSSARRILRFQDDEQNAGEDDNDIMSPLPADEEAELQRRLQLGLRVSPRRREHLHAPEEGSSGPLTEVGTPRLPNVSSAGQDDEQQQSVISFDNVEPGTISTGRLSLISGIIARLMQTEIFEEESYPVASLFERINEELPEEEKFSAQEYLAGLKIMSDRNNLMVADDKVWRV
Mcm6, sequence (P53091 whole entry): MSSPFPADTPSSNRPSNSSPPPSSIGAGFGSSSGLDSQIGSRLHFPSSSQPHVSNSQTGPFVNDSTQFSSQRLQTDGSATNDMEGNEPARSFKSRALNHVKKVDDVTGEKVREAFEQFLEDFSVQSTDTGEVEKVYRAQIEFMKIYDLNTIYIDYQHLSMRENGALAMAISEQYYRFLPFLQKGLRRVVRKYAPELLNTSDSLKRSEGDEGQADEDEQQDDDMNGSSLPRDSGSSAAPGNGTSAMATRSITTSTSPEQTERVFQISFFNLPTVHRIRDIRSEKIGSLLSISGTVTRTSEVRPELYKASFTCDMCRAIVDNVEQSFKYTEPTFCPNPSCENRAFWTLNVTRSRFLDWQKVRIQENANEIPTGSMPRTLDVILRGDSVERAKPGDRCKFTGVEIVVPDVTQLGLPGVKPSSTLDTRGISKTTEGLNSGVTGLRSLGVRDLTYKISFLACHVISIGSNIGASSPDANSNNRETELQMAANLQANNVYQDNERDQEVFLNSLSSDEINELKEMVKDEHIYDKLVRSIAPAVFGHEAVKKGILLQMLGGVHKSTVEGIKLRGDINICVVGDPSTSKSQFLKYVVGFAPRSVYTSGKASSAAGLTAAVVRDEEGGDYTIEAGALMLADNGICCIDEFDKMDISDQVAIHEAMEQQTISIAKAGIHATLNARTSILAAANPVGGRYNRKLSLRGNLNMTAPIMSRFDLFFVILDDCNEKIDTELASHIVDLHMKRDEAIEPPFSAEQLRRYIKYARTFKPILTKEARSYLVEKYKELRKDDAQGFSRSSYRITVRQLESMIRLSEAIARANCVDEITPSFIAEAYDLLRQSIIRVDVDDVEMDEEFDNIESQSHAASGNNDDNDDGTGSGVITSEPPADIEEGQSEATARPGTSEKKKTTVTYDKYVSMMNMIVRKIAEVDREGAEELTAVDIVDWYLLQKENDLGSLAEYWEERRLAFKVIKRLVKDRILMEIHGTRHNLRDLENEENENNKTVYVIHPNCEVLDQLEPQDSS

B1: Psf2 (natural protein)
chain: T2 sequence 3
As to B1, the binding result in assay [1] is on record as “binds”.

B2: Psf1 (natural protein)
chain: T2 sequence 2
For B2, the binding result in assay [1] was “binds”.

B3: Mcm5 (natural protein)
chain: MSFDRPEIYSAPVLQGESPNDDDNTEIIKSFKNFILEFRLDSQFIYRDQLRNNILVKNYSLTVNMEHLIGYNEDIYKKLSDEPSDIIPLFETAITQVAKRISILSRAQSANNNDKDPENTSMDTDSLLLNSLPTFQLILNSNANQIPLRDLDSEHVSKIVRLSGIIISTSVLSSRATYLSIMCRNCRHTTSITINNFNSITGNTVSLPRSCLSTIESESSMANESNIGDESTKKNCGPDPYIIIHESSKFIDQQFLKLQEIPELVPVGEMPRNLTMTCDRYLTNKVIPGTRVTIVGIYSIYNSKNGAGSGRSGGGNGGSGVAIRTPYIKILGIQSDVETSSIWNSVTMFTEEEEEEFLQLSRNPKLYEILTNSIAPSIFGNEDIKKAIVCLLMGGSKKILPDGMRLRGDINVLLLGDPGTAKSQLLKFVEKVSPIAVYTSGKGSSAAGLTASVQRDPMTREFYLEGGAMVLADGGVVCIDEFDKMRDEDRVAIHEAMEQQTISIAKAGITTVLNSRTSVLAAANPIYGRYDDLKSPGDNIDFQTTILSRFDMIFIVKDDHNEERDISIANHVINIHTGNANAMQNQQEENGSEISIEKMKRYITYCRLKCAPRLSPQAAEKLSSNFVTIRKQLLINELESTERSSIPITIRQLEAIIRITESLAKLELSPIAQERHVDEAIRLFQASTMDAASQDPIGGLNQASGTSLSEIRRFEQELKRRLPIGWSTSYQTLRREFVDTHRFSQLALDKALYALEKHETIQLRHQGQNIYRSGV
As to B3, the binding result in assay [2] and in assay [3] was “binds” each time.

B4: Mcm7 (natural protein)
chain: MSAALPSIQLPVDYNNLFNEITDFLVTFKQDTLSSDATRNENEDENLDAENIEQHLLEKGPKYMAMLQKVANRELNSVIIDLDDILQYQNEKFLQGTQADDLVSAIQQNANHFTELFCRAIDNNMPLPTKEIDYKDDVLDVILNQRRLRNERMLSDRTNEIRSENLMDTTMDPPSSMNDALREVVEDETELFPPNLTRRYFLYFKPLSQNCARRYRKKAISSKPLSVRQIKGDFLGQLITVRGIITRVSDVKPAVEVIAYTCDQCGYEVFQEVNSRTFTPLSECTSEECSQNQTKGQLFMSTRASKFSAFQECKIQELSQQVPVGHIPRSLNIHVNGTLVRSLSPGDIVDVTGIFLPAPYTGFKALKAGLLTETYLEAQFVRQHKKKFASFSLTSDVEERVMELITSGDVYNRLAKSIAPEIYGNLDVKKALLLLLVGGVDKRVGDGMKIRGDINVCLMGDPGVAKSQLLKAICKISPRGVYTTGKGSSGVGLTAAVMKDPVTDEMILEGGALVLADNGICCIDEFDKMDESDRTAIHEVMEQQTISISKAGINTTLNARTSILAAANPLYGRYNPRLSPLDNINLPAALLSRFDILFLMLDIPSRDDDEKLAEHVTYVHMHNKQPDLDFTPVEPSKMREYIAYAKTKRPVMSEAVNDYVVQAYIRLRQDSKREMDSKFSFGQATPRTLLGIIRLSQALAKLRLADMVDIDDVEEALRLVRVSKESLYQETNKSKEDESPTTKIFTIIKKMLQETGKNTLSYENIVKTVRLRGFTMLQLSNCIQEYSYLNVWHLINEGNTLKFVDDGTMDTDQEDSLVSTPKLAPQTTASANVSAQDSDIDLQDA
B4: the binding result in assay [4] and in assay [5] was “binds” in each case.
